In PMC6987120, “Structural insights into ATP hydrolysis by the MoxR ATPase RavA and the LdcI-RavA cage-like complex” (Communications Biology, 2020):
“And” between values parts separate entries of the source, which are not always exact repeats. Identical values can stand only once.

T1: LdcI (acid stress-inducible lysine decarboxylase) (E. coli, UniProt P0A9H3 1-715)
T1 construct: Inducible lysine decarboxylase LdcI of E. coli; 0.1 mM PLP in the BLI buffer; also called lysine decarboxylase LdcI; source: E. coli ppGpp-/- strain MG1655 ΔrelA ΔspoT, purified as previously described
T1 sequence: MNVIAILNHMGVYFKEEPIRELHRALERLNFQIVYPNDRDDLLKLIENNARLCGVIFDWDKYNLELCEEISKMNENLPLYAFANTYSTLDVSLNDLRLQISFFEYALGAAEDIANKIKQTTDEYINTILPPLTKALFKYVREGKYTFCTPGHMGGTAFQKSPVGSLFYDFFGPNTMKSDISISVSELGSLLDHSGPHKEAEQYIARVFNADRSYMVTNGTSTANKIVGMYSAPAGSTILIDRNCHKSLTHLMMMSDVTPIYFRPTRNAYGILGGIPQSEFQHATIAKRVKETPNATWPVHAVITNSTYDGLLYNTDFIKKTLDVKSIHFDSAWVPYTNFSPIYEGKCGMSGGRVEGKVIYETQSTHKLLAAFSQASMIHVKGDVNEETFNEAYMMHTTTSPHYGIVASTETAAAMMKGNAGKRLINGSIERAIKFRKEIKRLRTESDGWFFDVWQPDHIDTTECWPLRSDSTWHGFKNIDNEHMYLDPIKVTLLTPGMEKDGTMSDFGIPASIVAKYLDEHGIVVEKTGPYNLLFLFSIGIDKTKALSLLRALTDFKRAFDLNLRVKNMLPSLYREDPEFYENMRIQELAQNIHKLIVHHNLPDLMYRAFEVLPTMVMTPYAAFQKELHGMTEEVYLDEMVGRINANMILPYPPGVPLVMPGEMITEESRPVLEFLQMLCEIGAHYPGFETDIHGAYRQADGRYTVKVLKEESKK

B1: MoxR AAA+ ATPase RavA (enzyme)
chain: not shown
notes: RavA, MoxR family AAA+ ATPase of E. coli, encoded by the ravAviaA operon; cloned in the p11 vector (N-terminal cleavable HIS-tag); Hexamer (spiral or C2-symmetric closed ring) by cryo-EM with ADP; also called free RavA; RavA-ADP
B2: acid stress-inducible lysine decarboxylase LdcI (enzyme, E. coli)
chain: T1 sequence
notes: LdcI, inducible lysine decarboxylase of E. coli; Decamer in the cryo-EM maps of the cage; Buffers held 0.1 mM PLP; source: ppGpp-/- E. coli strain (MG1655 ΔrelA ΔspoT), purified as previously described; copies: 10
B3: biotinylated RavA-AviTag (enzyme)
chain: not shown
modifications: biotin (biotinylated AviTag)
notes: RavA of E. coli cloned in the p11 vector (N-terminal cleavable HIS-tag) with a C-terminal AviTag added; Incubated with 1 mM ADP for 10 min before BLI; also called AviTag-containing RavA; source: E. coli BL-21 DE3 (100 μM D-biotin in the LB medium, overnight, 20 °C), purified to homogeneity; not shown: AviTag, C-terminal, kept
B4: biotinylated RavA-AviTag (enzyme)
chain: not shown
modifications: biotin (biotinylated AviTag)
notes: MoxR AAA+ ATPase RavA of E. coli, cloned in the p11 vector (N-terminal cleavable HIS-tag) with a C-terminal AviTag added; The methods describe biotinylation during expression (D-biotin in the medium), the results say 'in vitro biotinylated'; source: E. coli BL-21 DE3 (100 μM D-biotin in the LB medium, overnight, 20 °C), purified to homogeneity; not shown: AviTag, C-terminal, kept

What was measured:
[1] = target: B2; test: cryo-EM structure; purified LdcI and RavA mixed at about 4.5:2 RavA:LdcI monomers; 20 mM Tris pH 7.9, 300 mM NaCl, 2 mM ADP, 10 mM MgCl2, 0.1 mM PLP, 1 mM DTT; room temperature; maps of Class 1 and Class 2 without symmetry imposed; settings: both partners purified
[2] = target: the molecule itself; test: as above
[3] = target: B2; test: BLI; biotinylated RavA-AviTag (pre-incubated with 1 mM ADP) immobilised on streptavidin biosensors; LdcI 500-31.25 nM in solution; Octet RED96, 293 K; pH 8 (Tris), 7 (HEPES), 6.5 and 5 (MES), 300 mM NaCl, 10 mM MgCl2, 10% glycerol, 0.1% BSA, 0.02% Tween-20, 1 mM ADP, 1 mM DTT, 0.1 mM PLP; 1:1 interaction model; averages over the four pH values; settings: both partners purified
[4] = target: T1, LdcI (acid stress-inducible lysine …); test: BLI; biotinylated RavA-AviTag incubated with 1 mM ADP for 10 min, on streptavidin biosensors, quenched with biocytin; LdcI 500-31.25 nM in solution; pH 5.0 (1x MES pH 5, with 1x kinetics buffer, 1 mM ADP, 1 mM DTT, 0.1 mM PLP); 293 K, Octet RED96; 1:1 interaction model; settings: both partners purified
[5] = target: T1, LdcI (acid stress-inducible lysine …); test: BLI; biotinylated RavA-AviTag on streptavidin biosensors WITHOUT prior incubation with ADP, quenched with biocytin; LdcI 500-31.25 nM in solution; pH 7.0 (1x HBS: 25 mM HEPES, 300 mM NaCl, 10 mM MgCl2, 10% glycerol, with 1x kinetics buffer, 1 mM DTT, 0.1 mM PLP); 293 K, Octet RED96; 1:1 interaction model; settings: both partners purified
[6] = target: T1, LdcI (acid stress-inducible lysine …); test: BLI; biotinylated RavA-AviTag incubated with 1 mM ADP for 10 min, on streptavidin biosensors, quenched with biocytin; LdcI 500-31.25 nM in solution; pH 6.5 (1x MES: 25 mM MES, 300 mM NaCl, 10 mM MgCl2, 10% glycerol, with 1x kinetics buffer, 1 mM ADP, 1 mM DTT, 0.1 mM PLP); 293 K, Octet RED96; 1:1 interaction model; settings: both partners purified
[7] = target: T1, LdcI (acid stress-inducible lysine …); test: BLI; biotinylated RavA-AviTag incubated with 1 mM ADP for 10 min, on streptavidin biosensors, quenched with biocytin; LdcI 500-31.25 nM in solution; pH 8.0 (1x TBS: 25 mM Tris, 300 mM NaCl, 10 mM MgCl2, 10% glycerol, with 1x kinetics buffer, 1 mM ADP, 1 mM DTT, 0.1 mM PLP); 293 K, Octet RED96; 1:1 interaction model; settings: both partners purified
[8] = target: T1, LdcI (acid stress-inducible lysine …); test: BLI; biotinylated RavA-AviTag incubated with 1 mM ADP for 10 min, on streptavidin biosensors, quenched with biocytin; LdcI 500-31.25 nM in solution; pH 7.0 (1x HBS: 25 mM HEPES, 300 mM NaCl, 10 mM MgCl2, 10% glycerol, with 1x kinetics buffer, 1 mM ADP, 1 mM DTT, 0.1 mM PLP); 293 K, Octet RED96; 1:1 interaction model; settings: both partners purified

Binder: B1
- binding result [1]: binds
- stoichiometry N [2]: 6

Binder: B2
- stoichiometry N [2]: 10

Binder: B3
- Kd [3]: 20 nM to 40 nM (2×) and 29.7 nM
- koff [3]: 0.000811 s⁻¹
- kon [3]: 26800 M⁻¹ s⁻¹

Binder: B4
- Kd [4]: 27.1 nM
- koff [4]: 0.00074 s⁻¹
- kon [4]: 27300 M⁻¹ s⁻¹
- Kd [5]: 46.3 nM
- koff [5]: 0.000987 s⁻¹
- kon [5]: 21300 M⁻¹ s⁻¹
- Kd [6]: 20.9 nM
- koff [6]: 0.000538 s⁻¹
- kon [6]: 25700 M⁻¹ s⁻¹
- Kd [7]: 44.2 nM
- koff [7]: 0.00131 s⁻¹
- kon [7]: 29600 M⁻¹ s⁻¹
- Kd [8]: 26.7 nM
- koff [8]: 0.000659 s⁻¹
- kon [8]: 24700 M⁻¹ s⁻¹
